Test [1] has as its target T1, human 4Ig-B7-H3-His protein (human, UniProt Q5ZPR3 29-466).
T1 construct: also called human B7-H3 protein
T1 sequence: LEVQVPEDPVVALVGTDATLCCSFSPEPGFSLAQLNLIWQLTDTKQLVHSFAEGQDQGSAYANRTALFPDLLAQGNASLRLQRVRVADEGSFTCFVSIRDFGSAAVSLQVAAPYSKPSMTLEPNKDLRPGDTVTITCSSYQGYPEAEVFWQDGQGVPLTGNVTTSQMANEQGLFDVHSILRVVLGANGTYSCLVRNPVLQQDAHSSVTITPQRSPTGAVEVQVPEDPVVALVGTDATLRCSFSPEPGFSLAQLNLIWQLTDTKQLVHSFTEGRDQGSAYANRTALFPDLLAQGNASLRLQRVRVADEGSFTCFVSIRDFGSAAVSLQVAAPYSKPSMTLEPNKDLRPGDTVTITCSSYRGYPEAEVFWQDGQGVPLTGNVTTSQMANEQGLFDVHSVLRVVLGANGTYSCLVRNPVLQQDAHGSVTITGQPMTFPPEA
As to the kind of experiment: ELISA, plate coated with human 4Ig-B7-H3-His, detection with anti-human IgG HRP, OD450. As to the method: (§1) The binding activity of antibodies was analyzed by ELISA. 96-well ELISA plates were coated with human 4Ig-B7-H3-His protein or 2Ig-B7-H3-His protein (1 μg/well, prepared in Examples 1 and 2) and incubated overnight at 4° C. The plates were washed 3 times with 1×PBST and then blocked with 5% skim milk at 37° C. for 2 h. After washing 3 times with 1×PBST, the anti-B7-H3 antibody of the present disclosure was used as the primary antibody and added to the ELISA plates in 5-fold gradient dilution starting from 2 μg/mL with a total of 8 concentrations: 2,000 ng/mL, 400 ng/mL, 80 ng/mL, 16 ng/mL, 3.2 ng/mL, 0.64 ng/mL, 0.128 ng/mL and 0.0256 ng/mL respectively. The plates were incubated at 37° C. for 2 h with hBRCA84D as the positive control antibody. After washing 5 times with 1×PBST, Anti-Human IgG HRP (Jackson, 109-035-003, 1:5000) was used as the secondary antibody and incubated at 37° C. for 1 h. After washing 5 times with 1×PBST, color developing solution TMB was added to the plate, and microplate reader (Thermo, Multiskan FC) was used to read OD450 value after termination of the reaction. EC₅₀ was generated by GraphPad.
In general terms: An ELISA detects its analyte on a solid surface through an enzyme-linked reagent.

For test [2], the target named is T2, B7-H3 on surface of tumor cell (786-0, MDA-MB-231, Raji-B7-H3 cells) (human, UniProt Q5ZPR3 29-534).
T2 sequence (looked up): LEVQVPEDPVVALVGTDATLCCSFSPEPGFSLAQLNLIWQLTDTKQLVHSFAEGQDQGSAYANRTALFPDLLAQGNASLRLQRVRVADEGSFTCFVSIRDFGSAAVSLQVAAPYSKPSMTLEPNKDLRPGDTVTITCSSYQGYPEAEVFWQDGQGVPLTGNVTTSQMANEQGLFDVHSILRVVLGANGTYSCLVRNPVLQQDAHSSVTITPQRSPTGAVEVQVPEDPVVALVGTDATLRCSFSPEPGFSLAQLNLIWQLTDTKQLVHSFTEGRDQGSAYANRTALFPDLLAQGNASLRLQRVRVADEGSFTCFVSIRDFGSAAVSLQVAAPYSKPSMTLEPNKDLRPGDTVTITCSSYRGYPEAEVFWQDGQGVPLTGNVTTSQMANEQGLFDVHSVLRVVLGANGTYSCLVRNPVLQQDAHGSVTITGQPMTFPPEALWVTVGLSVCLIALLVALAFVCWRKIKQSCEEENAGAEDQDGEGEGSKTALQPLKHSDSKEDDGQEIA
The experiment in a line: cell-based or functional assay.

Test [3] concerns the target T2, B7-H3 on surface of tumor cell (786-0, …). As to the kind of experiment: FACS on 786-0 cells. How it is done:
(§2) The binding activity of antibodies to B7-H3 on the surface of tumor cells was analyzed by FACS. Mean fluorescence intensity (MFI) and EC₅₀ detected by FACS indicate the binding activity of the antibody to cells. After 786-0 and MDA-MB-231 cells were digested, they were resuspended in 2% FBS-PBS solution and counted. After raji-B7-H3 cells were collected, they were resuspended in 2% FBS-PBS and counted. The above cells were plated in a cell plate with 1×10⁵ cells per well. The anti-B7-H3 antibody of the present disclosure was used as the primary antibody and added to cell plates in gradient dilution starting from 20 μg/mL with a total of 8 concentrations: 20,000 ng/mL, […], 2,000 ng/mL, 400 ng/mL, 80 ng/mL, 16 ng/mL, 3.2 ng/mL, and 0.64 ng/mL respectively. The plates were incubated at 4° C. for 1 h with hBRCA84D as the positive control antibody. PE-Anti-Human IgG (Biolegend, Cat. No. 409303, 1.25 μl/well) was used as the secondary antibody, washed, and detected for the fluorescence intensity generated by the binding of the antibody to the cell surface by a flow cytometer.

The target of test [4] is T3, human 2Ig-B7-H3-His protein (human, UniProt Q5ZPR3 29-463).
T3 sequence: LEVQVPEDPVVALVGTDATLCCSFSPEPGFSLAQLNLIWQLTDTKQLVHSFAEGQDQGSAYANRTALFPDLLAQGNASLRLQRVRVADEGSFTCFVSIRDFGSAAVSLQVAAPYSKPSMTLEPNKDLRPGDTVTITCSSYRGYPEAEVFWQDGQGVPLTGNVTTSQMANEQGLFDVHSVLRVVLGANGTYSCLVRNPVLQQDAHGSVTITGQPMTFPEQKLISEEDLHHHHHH
The experiment in a line: ELISA, plate coated with human 2Ig-B7-H3-His, detection with anti-human IgG HRP, OD450. As to the method: as §1

Test [5] addresses T2, B7-H3 on surface of tumor cell (786-0, …). As to the kind of experiment: FACS on Raji-B7-H3 cells. How it is done:
as §2

B1: hBRCA84D (antibody, human IgG1, kappa, V domains shown)
VH: EVQLVESGGGLVQPGGSLRLSCAASGFTFSSFGMHWVRQAPGKGLEWVAYISSDSSAIYYADTVKGRFTISRDNAKNSLYLQMNSLRDEDTAVYYCGRGRENIYYGSRLDYWGQGTTVTVSS
VL: DIQLTQSPSFLSASVGDRVTITCKASQNVDTNVAWYQQKPGKAPKALIYSASYRYSGVPSRFSGSGSGTDFTLTISSLQPEDFATYYCQQYNNYPFTFGQGTKLEIKR
notes: Humanized antibody from WO2011/109400; also called positive control antibody hBRCA84D; control antibody hBRCA84D
With B1, the results for the “EC50 (read off the curve)” value in test [1] and in test [4] were roughly 5 ng/mL and roughly 10 ng/mL, respectively. In addition, the “EC50 Ratio (ADCC, LDH method; EC50 of hBRCA84D divided by EC50 of the antibody; 786-0 target cells, human PBMC effectors)” value in test [2] came out at 1. Also, the EC50 (usually the concentration giving half of the maximal effect) in test [3] turned out to be 226 ng/mL. Also, the “Mean fluorescence intensity (MFI)” value in test [3] and in test [5] was 233000 each time.

Source of the values: US20220332829A1 (NANJING SANHOME PHARMACEUTICAL, published 2022).
